Assay results as given in the DeepSol protein solubility set.

Assay: soluble on expression in E. coli; label from the status in PepcDB or PDB records

Sequence	soluble on expression in E. coli
MSHSTYSLSFVASPSEEAQTALKELKAVYSDTPFEEADVIVALGGDGFMLQILNETMNSGKRVYGMNRGSVGFLMNDFRVEGLIQRIAVASGNDFHPLRMTTTDSDGDEFTALAMNEVSLFRQSHQAAKLRVEVDGKVRLEELICDGMMVATPAGSTAYNFSAHGPILPLESPLLALTPVSAFRPRRWRGALLPNKVTVDIHVLERDKRPVNAVADHTEVKSVRHVRIAQSQDRTAKILSDPDRSWSDRVLAEQFNNLEHHHHHH	not soluble
MVVNVFISAVTTDTLSRKEAVAWVNNLLKSHFTKVEEMASGAAYCQLTHLLFNAINLKKVKFNPRSEPDVLNNWKVLTTTWKDLGIDKPVDVEKMKKAKFQDNMEFLQWFYKFYNANLTTEPEEYDAVGARFGEDLPALKGSTGSRPVAAPARPVAAAPPKPRPAAPAVAAPAVKASVPPTVRNGTRPAPATSAGTRRADPSASEELLKQEIEKHKAASDEWETTAKEMETEREYYYSILQRVESLANEAEESGSSTVDVAALKTILYAGNEDTEQVDEIENEHLVESLQANLDDTETF	soluble
SRLFDEVVKKELDEAALKGVILTDGELKPEEFSMHIAEQLRAGGPFGQAFPEPIFDGEFKVLHQKLVGEKHLKLMLEPLYKGHPTNVMIDGIAFNVDLRRWPDASVKTVRLAYKLDVNEFRGNQSLQLMIDHIEAK	not soluble
MGSDKIHHHHHHMIIDTHIHAYPTSDDSKMTLEEIVAQARIIGLDGICITDHDSNEIMARAHEYRKQMGYPIFVGAEVFTWEGDVIVFGLERLPEERVSARYLLDLVNKANGVAISAHPFRQNNRGMGNSIREHKDLHGVEAFNGSTDHANNMKACDLAMELGIPVFGASDAHNTEALGKFATVFPNGLKDEKDLIEAIKMGKVYPVAYNHSADAKWTVIPPIG	not soluble
MGSDKIHHHHHHMPLPENSVVEKNILNPEAVAEALERAMNLANPQTTHAAIAVPTSTVIHKTIEMDADMSDDEREVQIRVDAEQYIPFPLDEVSLDFEVLPDRLANPNRVNVLLVATRTENVETRVEVLELADLNPKLADVESYAVERAFSVFADSLPMGANTIGILDIGHTMTTLSVMQNGKIIYTREQVFGGKQLTLEIQSRYGLSLEEASRAKKDRSLPDDYEIEVLDPFLDAVVQQAARSLQFFFSSSQFNEIDHILLAGGNANIPGLAKLLQQKLGYRVTIANPFLQMGFSPQVDVQKIENDASSLMVACGLALRSFD	not soluble
SCREKTELTPDQQTLLHFIMDSYNKQRMPQEITNKILKEEFSAEENFLILTEMATNHVQVLVEFTKKLPGFQTLDHEDQIALLKGSAVEAMFLRSAEIFNKKLPSGHSDLLEERIRNSGISDEYITPMFSFYKSIGELKMTQEEYALLTAIVILSPDRQYIKDREAVEKLQEPLLDVLQKLCKIHQPENPQHFACLLGRLTELRTFNHHHAEMLMSWRVNDHKFTPLLCEIWDVQ	soluble
MAHHHHHHMGAVDYEVNETHLTGAQALSDYLLDTWYVHDMPRYGAVSCIDRNVTALLRFADEWRGTNVNVFLYNSSSHHQAGLSLATYYDLFIKSFLGRDSAFMRYEAELFNEPASQSQLGFIFIGAPGGRSAGGLPGRAVGRHGPCGAARGVDCDPARRRALLRCADDAPPGGGGGACEHCGDHGARVRAVCRRQGTPEEQVRQRLRGERAAGVGAARGALCVVHAGGVPRRCAERRRGSAVRVPAAARSRLR	not soluble
SAPEENAGTELLLQSFERRFLAARTLRSFPWQSLEAKLRDSSDSELLRDILHKTVKHPVCVKHPPSVKYARCFLSELIKKHEAVHTEPLDELYEALAETLMAKESTQGHRSYLLPSGGSVTLSESTAIISYGTTGLVTWDAALYLAEWAIENPAVFTNRTVLELGSGAGLTGLAICKMCRPRAYIFSDCHSRVLEQLRGNVLLNGLSLEADITAKLDSPRVTVAQLDWDVATVHQLSAFQPDVVIAADVLYCPEAIMSLVGVLRRLAACREDQRAPEVYVAFTVRNPETCQLFTTELGRAGIRWEVEPRHEQKLFPYEEHLEMAMLNLTL	soluble
MMYALIVCNGSIIDYSFYRKFFDEADFIVCADGGALHLQRLGIKPDVLLGDFDSIESEHLEYYMKQNVEILKFPAEKDMTDTELAVNTAIDRGYKNIVIIGGTGTRLDHTLSNIFLLKLMLDRGVKGRIINEYNEMFLINDSTEIEAEDGCYLTLLPLTSKVEGITTEGLYYPLRGEAIEMGSTRGVSNCFVEKKARISITSGILIAIKTRE	not soluble
MAHHHHHHMRCVRVVCQRFVEFVTFCSGVVPPLALLGYPLPGSGCQKTHPTALSLKGARVGDADAGNADTWLSRAIPRNWAAFCVNLQARGVGLVTVGLSYGSPSVVVRQVLGWGCGGNELRLYGFCRSSVLCRVWGVSVPLSAFTPCSVDDSIFSLLRYRIFRACAS	not soluble
VPKLIDHDRRQQEIAEAVWRVIQREGIGAVSVRDVAAEAGISSGSLRHVFASKTELLAYSMRLVATRVRERAQAHASITDPWQRALAVLDEVLPLDDRRRCEMEVNLALVAESPAHPLLKDIALDAQRQLRGACAAILTGLAQWGLIAPDIDVDAEAMRLHALVDGAAMHVLLGDTDTPDTARRMIAEHLRTLL	not soluble
MGENITTRGVDLLGLPTGTRLRLGESALVELTGLRNPCSQLDNYQPGLTAAVLGRDEQGNLIRKAGVMAIVLEDGEVRPGDAIDIQLPPLPHRALEKV	not soluble
AIAGSLGIVTNDPSPYSVHFHLTGFGRFHRVSQNPTEFLVKQFVSFCEERRGLHEAARVVTTTVATTSVKGAQQALDEVYGKLHRDKSVRNVIIHCGVDASANCFRLEERAYNEASFSCPDESGWQPKVVPIDDTKPVDSFLVTSINIRQAVEELEKKGFHVKSSEDAGRFLCNWIYYQSLTRAQCEFSVKVVFVHFPPIQDSQEIQSYCEFLLQLLNVITTHELSSIDE	soluble
GPASQHFLSTSVQGPWERAISPNKVPYYINHETQTTCWDHPKMTELYQSLADLNNVRFSAYRTAMKLRRLQKALCLDLLSLSAACDALDQHNLKQNDQPMDILQIINCLTTIYDRLEQEHNNLVNVPLCVDMCLNWLLNVYDTGRTGRIRVLSFKTGIISLCKAHLEDKYRYLFKQVASSTGFCDQRRLGLLLHDSIQIPRQLGEVASFGGSNIEPSVRSCFQFANNKPEIEAALFLDWMRLEPQSMVWLPVLHRVAAAET	soluble
MLTTLAISNYRTLREIVLPLGRLNVVTGANGSGKSNLYKALRLLAQTAQGGVVNALALEGGLDSCFWAGPENLTKGMLAGDTPIEATVRQAPKRLKLGFAGEDFSYLIELGLPKPDSTTLFGLDPQIKREAIWNGAKYRPASVLVERRGPMVKSRSQDGQGWITLSAHLQSSDSIFTELADPERSPEVLKLRDSIRAWRFYDHFRTDTDAPARRPQLGTATPVLHHDGRDLPSAIQTIFEIGDKSAFDHAVSDAFPGAKVRITPQAGGILQLEFQQQGLLRPLYASELSDGTLRYLLLIAALLTPRPPELMVLNEPETSLHPDLLPALARLIAKASELEHHHHHH	not soluble
SLKYCIHNTRLIIGIADRVIENGSILFDQDKILKVSAHSITDADVFIDGTTFSVLPGLIDVHVHLGMDCSVDPFDTMENTEDAFTSFIAYKQGLQFLRAGITTVRNLGTKNNVDIIYKKAVESGLVIGPRVYAAGQPLIMTGGHGQPMGTEVDGKDEVIKATRQRIKEGADLIKIMATGGVLTKGNHPGAVHFNVDELKCICQEAAKASLTTAAHAIGLNGVKNAIKAGVNTIEHGYYLDKETVDTMRDLGIYLTPTLLAPTLLQKNSEHIPQHMIDKIEEIEKEHRKSFRLALERGVKIIAGTDAGTPFNNPGQLVEELKIMLEEGMTTAQAIESATYLGAKCLKVDSLIGSLEEQKLADLIVVKGNPLEDISNLKNIQHVFKGGVRLYPDQIH	soluble
ERVPKTVDVETIRSRIAQIDGVGGVHDVHVWSIDGQQDIATVHVVVDENVNVKDCTTLDRIQKVFHDAGIDHVTVQLEHDTHMSHELPCQH	soluble
